Experimental findings from PMC10453832, “Increased Actin Binding Is a Shared Molecular Consequence of Numerous SCA5 Mutations in β-III-Spectrin” (Cells, 2023) are described below.

By Kd is commonly meant the equilibrium constant for the complex coming apart.

For test [1], the target named is T1, F-actin from rabbit skeletal muscle (rabbit, UniProt P68135 1-377). Kind of test: co-sedimentation; 2 µM ABD protein with increasing F-actin (3-120 µM) in F-buffer (10 mM Tris pH 7.5, 150 mM NaCl, 0.5 mM ATP, 2 mM MgCl2, 1 mM DTT); 30 min at room temperature; 50,000 RPM 30 min 25 °C; ABD left in supernatant quantified by SDS-PAGE and Coomassie; one-site fit with Bmax constrained to 1. The note with it: both partners purified.

Test [2] addresses T1, F-actin from rabbit skeletal muscle. The description is as above. The note with it: both partners purified. This is another data set of the same source.

A value given as a limit tells only on which side of the number the result lay.

B1: β-III-spectrin actin-binding domain, wild-type (domain or fragment)
chain: MSSTLSPTDFDSLEIQGQYSDINNRWDLPDSDWDNDSSSARLFERSRIKALADEREAVQKKTFTKWVNSHLARVTCRVGDLYSDLRDGRNLLRLLEVLSGEILPKPTKGRMRIHCLENVDKALQFLKEQKVHLENMGSHDIVDGNHRLTLGLVWTIILRFQIQDISVETEDNKEKKSAKDALLLWCQMKTAGYPNVNVHNFTTSWRDGLAFNAIVHKHRPDLLDFESLKKCNAHYNLQNAFNLAEKELGLTKLLDPEDVNVDQPDEKSIITYVATYYHYFSKMK
notes: Construct pE-SUMO-ABD WT; also called ABD WT; wild-type ABD; source: Rosetta 2 (DE3) E. coli, purified (Ni-NTA, tag cleaved with Ulp1, second Ni-NTA)
In turn, B1 registered a Kd in test [1] of 55.2 µM.

B2: β-III-spectrin actin-binding domain L253P (domain or fragment)
chain: MSSTLSPTDFDSLEIQGQYSDINNRWDLPDSDWDNDSSSARLFERSRIKALADEREAVQKKTFTKWVNSHLARVTCRVGDLYSDLRDGRNLLRLLEVLSGEILPKPTKGRMRIHCLENVDKALQFLKEQKVHLENMGSHDIVDGNHRLTLGLVWTIILRFQIQDISVETEDNKEKKSAKDALLLWCQMKTAGYPNVNVHNFTTSWRDGLAFNAIVHKHRPDLLDFESLKKCNAHYNLQNAFNLAEKELGLTKPLDPEDVNVDQPDEKSIITYVATYYHYFSKMK
notes: Construct pE-SUMO-ABD-L253P; Mutation found in SCA5 patients; also called L253P ABD; source: Rosetta 2 (DE3) E. coli, purified (Ni-NTA, tag cleaved with Ulp1, second Ni-NTA)
B2 displayed a Kd in test [1] of less than 1 µM.

B3: β-III-spectrin actin-binding domain K61E (domain or fragment)
chain: MSSTLSPTDFDSLEIQGQYSDINNRWDLPDSDWDNDSSSARLFERSRIKALADEREAVQKETFTKWVNSHLARVTCRVGDLYSDLRDGRNLLRLLEVLSGEILPKPTKGRMRIHCLENVDKALQFLKEQKVHLENMGSHDIVDGNHRLTLGLVWTIILRFQIQDISVETEDNKEKKSAKDALLLWCQMKTAGYPNVNVHNFTTSWRDGLAFNAIVHKHRPDLLDFESLKKCNAHYNLQNAFNLAEKELGLTKLLDPEDVNVDQPDEKSIITYVATYYHYFSKMK
notes: mutation found in a patient; also called K61E ABD; source: Rosetta 2 (DE3) E. coli, purified (Ni-NTA, tag cleaved with Ulp1, second Ni-NTA)
In test [1], B3 had a dissociation constant (Kd) of less than 1 µM.

B4: β-III-spectrin actin-binding domain T271I (domain or fragment)
chain: MSSTLSPTDFDSLEIQGQYSDINNRWDLPDSDWDNDSSSARLFERSRIKALADEREAVQKKTFTKWVNSHLARVTCRVGDLYSDLRDGRNLLRLLEVLSGEILPKPTKGRMRIHCLENVDKALQFLKEQKVHLENMGSHDIVDGNHRLTLGLVWTIILRFQIQDISVETEDNKEKKSAKDALLLWCQMKTAGYPNVNVHNFTTSWRDGLAFNAIVHKHRPDLLDFESLKKCNAHYNLQNAFNLAEKELGLTKLLDPEDVNVDQPDEKSIIIYVATYYHYFSKMK
notes: mutation found in a patient; also called T271I ABD; source: Rosetta 2 (DE3) E. coli, purified (Ni-NTA, tag cleaved with Ulp1, second Ni-NTA)
In test [1], B4 registered a dissociation constant (Kd) of less than 1 µM.

B5: β-III-spectrin actin-binding domain D255G (domain or fragment)
chain: MSSTLSPTDFDSLEIQGQYSDINNRWDLPDSDWDNDSSSARLFERSRIKALADEREAVQKKTFTKWVNSHLARVTCRVGDLYSDLRDGRNLLRLLEVLSGEILPKPTKGRMRIHCLENVDKALQFLKEQKVHLENMGSHDIVDGNHRLTLGLVWTIILRFQIQDISVETEDNKEKKSAKDALLLWCQMKTAGYPNVNVHNFTTSWRDGLAFNAIVHKHRPDLLDFESLKKCNAHYNLQNAFNLAEKELGLTKLLGPEDVNVDQPDEKSIITYVATYYHYFSKMK
notes: mutation found in a patient; also called D255G ABD; source: Rosetta 2 (DE3) E. coli, purified (Ni-NTA, tag cleaved with Ulp1, second Ni-NTA)
B5 showed a Kd in test [1] of 7.3 µM.

B6: β-III-spectrin actin-binding domain V58M (domain or fragment)
chain: MSSTLSPTDFDSLEIQGQYSDINNRWDLPDSDWDNDSSSARLFERSRIKALADEREAMQKKTFTKWVNSHLARVTCRVGDLYSDLRDGRNLLRLLEVLSGEILPKPTKGRMRIHCLENVDKALQFLKEQKVHLENMGSHDIVDGNHRLTLGLVWTIILRFQIQDISVETEDNKEKKSAKDALLLWCQMKTAGYPNVNVHNFTTSWRDGLAFNAIVHKHRPDLLDFESLKKCNAHYNLQNAFNLAEKELGLTKLLDPEDVNVDQPDEKSIITYVATYYHYFSKMK
notes: mutation found in a patient; also called V58M ABD; source: Rosetta 2 (DE3) E. coli, purified (Ni-NTA, tag cleaved with Ulp1, second Ni-NTA)
Take B6: the Kd in test [1] was found to be 10.2 µM.

B7: β-III-spectrin actin-binding domain F160C (domain or fragment)
chain: MSSTLSPTDFDSLEIQGQYSDINNRWDLPDSDWDNDSSSARLFERSRIKALADEREAVQKKTFTKWVNSHLARVTCRVGDLYSDLRDGRNLLRLLEVLSGEILPKPTKGRMRIHCLENVDKALQFLKEQKVHLENMGSHDIVDGNHRLTLGLVWTIILRCQIQDISVETEDNKEKKSAKDALLLWCQMKTAGYPNVNVHNFTTSWRDGLAFNAIVHKHRPDLLDFESLKKCNAHYNLQNAFNLAEKELGLTKLLDPEDVNVDQPDEKSIITYVATYYHYFSKMK
notes: mutation found in a patient; The methods paragraph prints F16C, everywhere else F160C; also called F160C ABD; F16C (as printed in the methods); source: Rosetta 2 (DE3) E. coli, purified (Ni-NTA, tag cleaved with Ulp1, second Ni-NTA)
Take B7: the Kd in test [1] was less than 1 µM.

B8: β-III-spectrin actin-binding domain H278R (domain or fragment)
chain: MSSTLSPTDFDSLEIQGQYSDINNRWDLPDSDWDNDSSSARLFERSRIKALADEREAVQKKTFTKWVNSHLARVTCRVGDLYSDLRDGRNLLRLLEVLSGEILPKPTKGRMRIHCLENVDKALQFLKEQKVHLENMGSHDIVDGNHRLTLGLVWTIILRFQIQDISVETEDNKEKKSAKDALLLWCQMKTAGYPNVNVHNFTTSWRDGLAFNAIVHKHRPDLLDFESLKKCNAHYNLQNAFNLAEKELGLTKLLDPEDVNVDQPDEKSIITYVATYYRYFSKMK
notes: mutation found in a patient; also called H278R ABD; source: Rosetta 2 (DE3) E. coli, purified (Ni-NTA, tag cleaved with Ulp1, second Ni-NTA)
For the molecule B8, the dissociation constant (Kd) in test [1] was determined as 6.7 µM.

B9: β-III-spectrin actin-binding domain K65E (domain or fragment)
chain: MSSTLSPTDFDSLEIQGQYSDINNRWDLPDSDWDNDSSSARLFERSRIKALADEREAVQKKTFTEWVNSHLARVTCRVGDLYSDLRDGRNLLRLLEVLSGEILPKPTKGRMRIHCLENVDKALQFLKEQKVHLENMGSHDIVDGNHRLTLGLVWTIILRFQIQDISVETEDNKEKKSAKDALLLWCQMKTAGYPNVNVHNFTTSWRDGLAFNAIVHKHRPDLLDFESLKKCNAHYNLQNAFNLAEKELGLTKLLDPEDVNVDQPDEKSIITYVATYYHYFSKMK
notes: mutation found in a patient; also called K65E ABD; source: Rosetta 2 (DE3) E. coli, purified (Ni-NTA, tag cleaved with Ulp1, second Ni-NTA)
B9 gave a Kd in test [1] of less than 1 µM.

B10: β-III-spectrin actin-binding domain T62I (domain or fragment)
chain: MSSTLSPTDFDSLEIQGQYSDINNRWDLPDSDWDNDSSSARLFERSRIKALADEREAVQKKIFTKWVNSHLARVTCRVGDLYSDLRDGRNLLRLLEVLSGEILPKPTKGRMRIHCLENVDKALQFLKEQKVHLENMGSHDIVDGNHRLTLGLVWTIILRFQIQDISVETEDNKEKKSAKDALLLWCQMKTAGYPNVNVHNFTTSWRDGLAFNAIVHKHRPDLLDFESLKKCNAHYNLQNAFNLAEKELGLTKLLDPEDVNVDQPDEKSIITYVATYYHYFSKMK
notes: mutation found in a patient; also called T62I ABD; source: Rosetta 2 (DE3) E. coli, purified (Ni-NTA, tag cleaved with Ulp1, second Ni-NTA)
Regarding B10, the Kd in test [1] was determined as 2.4 µM.

B11: β-III-spectrin actin-binding domain Y272H (domain or fragment)
chain: MSSTLSPTDFDSLEIQGQYSDINNRWDLPDSDWDNDSSSARLFERSRIKALADEREAVQKKTFTKWVNSHLARVTCRVGDLYSDLRDGRNLLRLLEVLSGEILPKPTKGRMRIHCLENVDKALQFLKEQKVHLENMGSHDIVDGNHRLTLGLVWTIILRFQIQDISVETEDNKEKKSAKDALLLWCQMKTAGYPNVNVHNFTTSWRDGLAFNAIVHKHRPDLLDFESLKKCNAHYNLQNAFNLAEKELGLTKLLDPEDVNVDQPDEKSIITHVATYYHYFSKMK
notes: mutation found in a patient and a parent; also called Y272H ABD; source: Rosetta 2 (DE3) E. coli, purified (Ni-NTA, tag cleaved with Ulp1, second Ni-NTA)
In the case of B11, the Kd was 15.3 µM in test [1] and 15.5 µM in test [2].
